Laboratory results from patent publication US20250043302A1, “MUTATED HYDROXYPHENYLPYRUVATE DIOXYGENASE POLYPEPTIDE, AND CODING GENE AND USE THEREOF” (BEIJING DABEINONG BIOTECHNOLOGY CO., LTD., priority 2021, published 2025).
Numbering of substitutions follows the chain as printed. Names may count otherwise.

B1: ZmHPPDm-F372A-02: nucleotide sequence encoding Zea mays HPPD with F372A; vector DBN11767 (nucleic acid)
DNA: ATGCCACCCACACCCACAGCAGCAGCGGCGGGCGCAGCGGTCGCAGCGGCGTCAGCGGCGGAGCAAGCGGCGTTCAGATTGGTTGGTCACCGCAACTTCGTGAGATTCAATCCTCGCTCAGATAGATTCCATACTCTGGCCTTCCACCATGTTGAGCTTTGGTGCGCTGATGCTGCTTCTGCTGCTGGAAGGTTCAGCTTCGGTTTGGGTGCTCCCCTCGCTGCTAGATCTGATTTGAGCACTGGTAACTCAGCACATGCTTCCCTCCTGCTTAGATCTGGCTCTCTGAGCTTCCTTTTCACTGCTCCATATGCTCATGGTGCTGATGCTGCTACAGCTGCTCTCCCTTCATTCTCCGCTGCTGCTGCTAGGAGATTCGCTGCTGATCACGGATTGGCTGTGAGGGCTGTTGCACTTAGAGTTGCTGATGCTGAGGAGGCCTTCCGCACCTCTGTTGCTGCTGGAGCCAGACCAGCTTTCGGACCTGTTGATCTCGGAAGGGGTTTCCGCCTGGCTGAGGTGGAGCTTTACGGCGATGTGGTTCTGCGCTACGTTAGCTATCCTGATGGTGCTGCTGGTGAACCTTTCCTTCCAGGATTCGAGGGTGTGGCCTCACCAGGTGCCGCTGATTACGGCCTGTCCAGATTCGACCACATTGTTGGAAATGTTCCTGAGCTTGCTCCAGCTGCTGCCTACTTCGCTGGCTTCACCGGATTCCATGAGTTCGCCGAGTTCACCACTGAGGATGTGGGAACTGCTGAGTCTGGTTTGAATAGCATGGTGCTCGCCAACAATTCAGAGAACGTTTTGCTCCCTCTGAATGAGCCCGTGCACGGAACAAAGAGAAGGTCCCAGATTCAAACCTTCTTGGATCACCACGGCGGCCCAGGTGTTCAGCATATGGCTCTCGCCTCCGATGACGTGTTGAGAACCCTCAGGGAGATGCAAGCCAGGTCTGCTATGGGTGGCTTCGAGTTCATGGCCCCACCTACAAGCGATTACTATGATGGTGTGCGCAGAAGGGCTGGCGACGTTCTTACCGAGGCTCAGATCAAGGAGTGCCAAGAGCTGGGCGTGCTTGTTGATAGAGATGACCAGGGAGTTCTGCTTCAAATTGCTCCCAAGCCAGTGGGCGACAGGCCTACTTTGTTCCTCGAGATTATCCAGAGAATCGGATGCATGGAGAGGGATGAGAAGGGTCAGGAGTACCAAAAGGGAGGTTGCGGCGGATTCGGCAAGGGAAATTTCTCACAACTCTTCAAGTCCATCGAGGACTATGAAAAGAGTCTGGAAGCGATGCAGGCAGCAGCAGCAGCAACCGCACAGGGGTCGTGA
modifications: ZmHPPDm-F372A-02 Nucleotide Sequence
notes: vector DBN11767
B2: ZmHPPDm-F383W-02: nucleotide sequence encoding Zea mays HPPD with F383W; vector DBN11768 (nucleic acid)
DNA: B1 DNA with G1117T, C1118T, T1119C, T1151G, C1152G
modifications: ZmHPPDm-F383W-02 Nucleotide Sequence
notes: vector DBN11768

Tests used:
Format in all cases: in vivo
[1] = system: Arabidopsis thaliana T1 plants; experiment: Isoxaflutole tolerance of transgenic Arabidopsis thaliana T1 plants (spray, bleached leaf area grade, damage score); set-up: Scores (pesticide damage): scale not given here; details: spray, Arabidopsis thaliana T1 plants; for Classification and statistics of the grade of pesticide damage: Grade 0 (number of plants) / Classification and statistics of the grade of pesticide damage: Grade 1 (number of plants) / Classification and statistics of the grade of pesticide damage: Grade 2 (number of plants) / Classification and statistics of the grade of pesticide damage: Grade 3 (number of plants): 16 plants
Summary of the method: (§1)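 Damage graded 0–3 from the proportion of bleached leaf area 7 days after spraying. Plants were glufosinate-selected T1 lines, 18 days after sowing, plus vector and wild-type controls. Rates: mesotrione 52.5–420, isoxaflutole 35–280, topramezone 25–200 g ai/ha, with water (0×).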

[2] = system: Arabidopsis thaliana T1 plants; experiment: Mesotrione tolerance of transgenic Arabidopsis thaliana T1 plants (spray, bleached leaf area grade, damage score); set-up: Scores: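 damage score 0-100 computed as Σ(N×S)/(T×M)×100 over grades 0-3 with higher meaning more damage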; details: Arabidopsis thaliana T1 plants; for Grade 0 (classification and statistics of the grade of pesticide damage; number of plants) / Grade 1 (classification and statistics of the grade of pesticide damage; number of plants) / Grade 2 (classification and statistics of the grade of pesticide damage; number of plants) / Grade 3 (classification and statistics of the grade of pesticide damage; number of plants): 16 plants
Summary of the method: as §1

[3] = system: Arabidopsis thaliana T1 plants; experiment: Topramezone tolerance of transgenic Arabidopsis thaliana T1 plants (spray, bleached leaf area grade, damage score); details: 7 DAT, Table 4; for Classification and statistics of the grade of pesticide damage: Grade 0 / Classification and statistics of the grade of pesticide damage: Grade 1 / Classification and statistics of the grade of pesticide damage: Grade 2 / Classification and statistics of the grade of pesticide damage: Grade 3: number of plants; for Scores: pesticide damage score 0-100
Summary of the method: as §1

[4] = isoxaflutole 35 g ai/ha (0.5x field concentration)
[5] = isoxaflutole 70 g ai/ha (1x field concentration)

| Molecule | Resistance evaluation [1, 4] | Scores (pesticide damage) [1, 4] | Classification and statistics of the grade of pesticide damage: Grade 0 (number of plants) [1, 4] | Classification and statistics of the grade of pesticide damage: Grade 1 (number of plants) [1, 4] | Classification and statistics of the grade of pesticide damage: Grade 2 (number of plants) [1, 4] | Classification and statistics of the grade of pesticide damage: Grade 3 (number of plants) [1, 4] | Resistance evaluation [1, 5] | Scores (pesticide damage) [1, 5] | Classification and statistics of the grade of pesticide damage: Grade 0 (number of plants) [1, 5] | Classification and statistics of the grade of pesticide damage: Grade 1 (number of plants) [1, 5] | Classification and statistics of the grade of pesticide damage: Grade 2 (number of plants) [1, 5] | Classification and statistics of the grade of pesticide damage: Grade 3 (number of plants) [1, 5] | Resistance evaluation ([2]; mesotrione 52.5 g ai/ha) | Scores ([2]; mesotrione 52.5 g ai/ha) | Grade 0 (classification and statistics of the grade of pesticide damage; number of plants) ([2]; mesotrione 52.5 g ai/ha) | Grade 1 (classification and statistics of the grade of pesticide damage; number of plants) ([2]; mesotrione 52.5 g ai/ha) | Grade 2 (classification and statistics of the grade of pesticide damage; number of plants) ([2]; mesotrione 52.5 g ai/ha) | Grade 3 (classification and statistics of the grade of pesticide damage; number of plants) ([2]; mesotrione 52.5 g ai/ha) | Resistance evaluation ([2]; mesotrione 105 g ai/ha) | Scores ([2]; mesotrione 105 g ai/ha) | further results |
| --- | --- | --- | --- | --- | --- | --- | --- | --- | --- | --- | --- | --- | --- | --- | --- | --- | --- | --- | --- | --- | --- |
| B1 | Moderately | 33 | 3 | 10 | 3 | 0 | Poorly | 67 | 0 | 1 | 14 | 1 | Moderately | 31 | 3 | 11 | 2 | 0 | Poorly resistant | 67 | Grade 0 (classification and statistics of the grade of pesticide damage; number of plants) ([2]; mesotrione 105 g ai/ha): 0; Grade 1 (classification and statistics of the grade of pesticide damage; number of plants) ([2]; mesotrione 105 g ai/ha): 1; Grade 2 (classification and statistics of the grade of pesticide damage; number of plants) ([2]; mesotrione 105 g ai/ha): 14; Grade 3 (classification and statistics of the grade of pesticide damage; number of plants) ([2]; mesotrione 105 g ai/ha): 1; Classification and statistics of the grade of pesticide damage: Grade 0 ([3]; topramezone 25 g ai/ha (1×)): 16; Classification and statistics of the grade of pesticide damage: Grade 1 ([3]; topramezone 25 g ai/ha (1×)): 0; Classification and statistics of the grade of pesticide damage: Grade 2 ([3]; topramezone 25 g ai/ha (1×)): 0; Classification and statistics of the grade of pesticide damage: Grade 3 ([3]; topramezone 25 g ai/ha (1×)): 0; Classification and statistics of the grade of pesticide damage: Grade 0 ([3]; topramezone 100 g ai/ha (4×)): 4; Classification and statistics of the grade of pesticide damage: Grade 1 ([3]; topramezone 100 g ai/ha (4×)): 12; Classification and statistics of the grade of pesticide damage: Grade 2 ([3]; topramezone 100 g ai/ha (4×)): 0; Classification and statistics of the grade of pesticide damage: Grade 3 ([3]; topramezone 100 g ai/ha (4×)): 0; Scores ([3]; topramezone 25 g ai/ha (1×)): 0; Scores ([3]; topramezone 100 g ai/ha (4×)): 25; Resistance evaluation ([3]; topramezone 25 g ai/ha (1×)): highly; Resistance evaluation ([3]; topramezone 100 g ai/ha (4×)): moderately |
| B2 | Poorly | 42 | 2 | 8 | 6 | 0 | Non-resistant | 96 | 0 | 0 | 2 | 14 | Poorly resistant | 63 | 0 | 3 | 12 | 1 | Non-resistant | 98 | Grade 0 (classification and statistics of the grade of pesticide damage; number of plants) ([2]; mesotrione 105 g ai/ha): 0; Grade 1 (classification and statistics of the grade of pesticide damage; number of plants) ([2]; mesotrione 105 g ai/ha): 0; Grade 2 (classification and statistics of the grade of pesticide damage; number of plants) ([2]; mesotrione 105 g ai/ha): 1; Grade 3 (classification and statistics of the grade of pesticide damage; number of plants) ([2]; mesotrione 105 g ai/ha): 15; Classification and statistics of the grade of pesticide damage: Grade 0 ([3]; topramezone 25 g ai/ha (1×)): 2; Classification and statistics of the grade of pesticide damage: Grade 1 ([3]; topramezone 25 g ai/ha (1×)): 9; Classification and statistics of the grade of pesticide damage: Grade 2 ([3]; topramezone 25 g ai/ha (1×)): 5; Classification and statistics of the grade of pesticide damage: Grade 3 ([3]; topramezone 25 g ai/ha (1×)): 0; Classification and statistics of the grade of pesticide damage: Grade 0 ([3]; topramezone 100 g ai/ha (4×)): 0; Classification and statistics of the grade of pesticide damage: Grade 1 ([3]; topramezone 100 g ai/ha (4×)): 4; Classification and statistics of the grade of pesticide damage: Grade 2 ([3]; topramezone 100 g ai/ha (4×)): 7; Classification and statistics of the grade of pesticide damage: Grade 3 ([3]; topramezone 100 g ai/ha (4×)): 5; Scores ([3]; topramezone 25 g ai/ha (1×)): 40; Scores ([3]; topramezone 100 g ai/ha (4×)): 69; Resistance evaluation ([3]; topramezone 25 g ai/ha (1×)): poorly; Resistance evaluation ([3]; topramezone 100 g ai/ha (4×)): non-resistant (non-resistant plants (scores 68-100)) |
